Reference: CN112239498A

How the values were obtained:
[1] = molecular target: 1aE2C、1bE2C、2aE2C、3aE2C、4aE2C、5aE2C、6aE2C; assay: ELISA, coated E2C of seven subtypes
[2] = molecular target: 1bE2C (Hepatitis C virus, subtype 1b); assay: ELISA, coated 1bE2C, anti-human IgG-HRP detection

B1: 抗体HNC-5 (antibody, V domains shown)
VH: QVQLVQSGAEVKKPGSSVKVSCKVSGVTFKGYAISWVRQAPGQGLEWMGSVIPIFGAANYAQQFQGRVTITADESTSTAYMELRSLKFDDTAVYYCGRGDQLLWGITAFHYWGQGTLVTVSS
VL: EIVLTQSPGTLPLSPGEGATLSCRASHIVTSNNLAWYQQKPGQAPRLLIYGASNRATGIPDRFSGSGSGTDFTLTISRLEPEDFAMYYCQQYGSSPGTFGQGTKLEIK
- EC50 [1]: 0.00216 to 0.0226 µg/mL
- EC50 [2]: 0.016 µg/mL
